B1: T049M: single-substitution thermolysin variant (SEQ ID NO:3 numbering) (protein, listed as Geobacillus caldoproteolyticus)
chain: ITGTSTVGVGRGVLGDQKNINTTYSTYYYLQDNTRGNGIFTYDAKYRTMLPGSLWADADNQFFASYDAPAVDAHYYAGVTYDYYKNVHNRLSYDGNNAAIRSSVHYSQGYNNAFWNGSQMVYGDGDGQTFIPLSGGIDVVAHELTHAVTDYTAGLIYQNESGAINEAISDIFGTLVEFYANKNPDWEIGEDVYTPGISGDSLRSMSDPAKYGDPDHYSKRYTGTQDNGGVHINSGIINKAAYLISQGGTHYGVSVVGIGRDKLGKIFYRALTQYLTPTSNFSQLRAAAVQSATDLYGSTSQEVASVKQAFDAVGVK
B2: G196D: single-substitution thermolysin variant (SEQ ID NO:3 numbering) (protein, listed as Geobacillus caldoproteolyticus)
chain: ITGTSTVGVGRGVLGDQKNINTTYSTYYYLQDNTRGNGIFTYDAKYRTTLPGSLWADADNQFFASYDAPAVDAHYYAGVTYDYYKNVHNRLSYDGNNAAIRSSVHYSQGYNNAFWNGSQMVYGDGDGQTFIPLSGGIDVVAHELTHAVTDYTAGLIYQNESGAINEAISDIFGTLVEFYANKNPDWEIGEDVYTPDISGDSLRSMSDPAKYGDPDHYSKRYTGTQDNGGVHINSGIINKAAYLISQGGTHYGVSVVGIGRDKLGKIFYRALTQYLTPTSNFSQLRAAAVQSATDLYGSTSQEVASVKQAFDAVGVK
B3: I156K: single-substitution thermolysin variant (SEQ ID NO:3 numbering) (protein, listed as Geobacillus caldoproteolyticus)
chain: ITGTSTVGVGRGVLGDQKNINTTYSTYYYLQDNTRGNGIFTYDAKYRTTLPGSLWADADNQFFASYDAPAVDAHYYAGVTYDYYKNVHNRLSYDGNNAAIRSSVHYSQGYNNAFWNGSQMVYGDGDGQTFIPLSGGIDVVAHELTHAVTDYTAGLKYQNESGAINEAISDIFGTLVEFYANKNPDWEIGEDVYTPGISGDSLRSMSDPAKYGDPDHYSKRYTGTQDNGGVHINSGIINKAAYLISQGGTHYGVSVVGIGRDKLGKIFYRALTQYLTPTSNFSQLRAAAVQSATDLYGSTSQEVASVKQAFDAVGVK
B4: A056R: single-substitution thermolysin variant (SEQ ID NO:3 numbering) (protein, listed as Geobacillus caldoproteolyticus)
chain: ITGTSTVGVGRGVLGDQKNINTTYSTYYYLQDNTRGNGIFTYDAKYRTTLPGSLWRDADNQFFASYDAPAVDAHYYAGVTYDYYKNVHNRLSYDGNNAAIRSSVHYSQGYNNAFWNGSQMVYGDGDGQTFIPLSGGIDVVAHELTHAVTDYTAGLIYQNESGAINEAISDIFGTLVEFYANKNPDWEIGEDVYTPGISGDSLRSMSDPAKYGDPDHYSKRYTGTQDNGGVHINSGIINKAAYLISQGGTHYGVSVVGIGRDKLGKIFYRALTQYLTPTSNFSQLRAAAVQSATDLYGSTSQEVASVKQAFDAVGVK
B5: G196H: single-substitution thermolysin variant (SEQ ID NO:3 numbering) (protein, listed as Geobacillus caldoproteolyticus)
chain: ITGTSTVGVGRGVLGDQKNINTTYSTYYYLQDNTRGNGIFTYDAKYRTTLPGSLWADADNQFFASYDAPAVDAHYYAGVTYDYYKNVHNRLSYDGNNAAIRSSVHYSQGYNNAFWNGSQMVYGDGDGQTFIPLSGGIDVVAHELTHAVTDYTAGLIYQNESGAINEAISDIFGTLVEFYANKNPDWEIGEDVYTPHISGDSLRSMSDPAKYGDPDHYSKRYTGTQDNGGVHINSGIINKAAYLISQGGTHYGVSVVGIGRDKLGKIFYRALTQYLTPTSNFSQLRAAAVQSATDLYGSTSQEVASVKQAFDAVGVK
B6: A058S: single-substitution thermolysin variant (SEQ ID NO:3 numbering) (protein, listed as Geobacillus caldoproteolyticus)
chain: ITGTSTVGVGRGVLGDQKNINTTYSTYYYLQDNTRGNGIFTYDAKYRTTLPGSLWADSDNQFFASYDAPAVDAHYYAGVTYDYYKNVHNRLSYDGNNAAIRSSVHYSQGYNNAFWNGSQMVYGDGDGQTFIPLSGGIDVVAHELTHAVTDYTAGLIYQNESGAINEAISDIFGTLVEFYANKNPDWEIGEDVYTPGISGDSLRSMSDPAKYGDPDHYSKRYTGTQDNGGVHINSGIINKAAYLISQGGTHYGVSVVGIGRDKLGKIFYRALTQYLTPTSNFSQLRAAAVQSATDLYGSTSQEVASVKQAFDAVGVK
B7: S065I: single-substitution thermolysin variant (SEQ ID NO:3 numbering) (protein, listed as Geobacillus caldoproteolyticus)
chain: ITGTSTVGVGRGVLGDQKNINTTYSTYYYLQDNTRGNGIFTYDAKYRTTLPGSLWADADNQFFAIYDAPAVDAHYYAGVTYDYYKNVHNRLSYDGNNAAIRSSVHYSQGYNNAFWNGSQMVYGDGDGQTFIPLSGGIDVVAHELTHAVTDYTAGLIYQNESGAINEAISDIFGTLVEFYANKNPDWEIGEDVYTPGISGDSLRSMSDPAKYGDPDHYSKRYTGTQDNGGVHINSGIINKAAYLISQGGTHYGVSVVGIGRDKLGKIFYRALTQYLTPTSNFSQLRAAAVQSATDLYGSTSQEVASVKQAFDAVGVK
B8: A056Y: single-substitution thermolysin variant (SEQ ID NO:3 numbering) (protein, listed as Geobacillus caldoproteolyticus)
chain: ITGTSTVGVGRGVLGDQKNINTTYSTYYYLQDNTRGNGIFTYDAKYRTTLPGSLWYDADNQFFASYDAPAVDAHYYAGVTYDYYKNVHNRLSYDGNNAAIRSSVHYSQGYNNAFWNGSQMVYGDGDGQTFIPLSGGIDVVAHELTHAVTDYTAGLIYQNESGAINEAISDIFGTLVEFYANKNPDWEIGEDVYTPGISGDSLRSMSDPAKYGDPDHYSKRYTGTQDNGGVHINSGIINKAAYLISQGGTHYGVSVVGIGRDKLGKIFYRALTQYLTPTSNFSQLRAAAVQSATDLYGSTSQEVASVKQAFDAVGVK
B9: S065T: single-substitution thermolysin variant (SEQ ID NO:3 numbering) (protein, listed as Geobacillus caldoproteolyticus)
chain: ITGTSTVGVGRGVLGDQKNINTTYSTYYYLQDNTRGNGIFTYDAKYRTTLPGSLWADADNQFFATYDAPAVDAHYYAGVTYDYYKNVHNRLSYDGNNAAIRSSVHYSQGYNNAFWNGSQMVYGDGDGQTFIPLSGGIDVVAHELTHAVTDYTAGLIYQNESGAINEAISDIFGTLVEFYANKNPDWEIGEDVYTPGISGDSLRSMSDPAKYGDPDHYSKRYTGTQDNGGVHINSGIINKAAYLISQGGTHYGVSVVGIGRDKLGKIFYRALTQYLTPTSNFSQLRAAAVQSATDLYGSTSQEVASVKQAFDAVGVK
B10: I156H: single-substitution thermolysin variant (SEQ ID NO:3 numbering) (protein, listed as Geobacillus caldoproteolyticus)
chain: ITGTSTVGVGRGVLGDQKNINTTYSTYYYLQDNTRGNGIFTYDAKYRTTLPGSLWADADNQFFASYDAPAVDAHYYAGVTYDYYKNVHNRLSYDGNNAAIRSSVHYSQGYNNAFWNGSQMVYGDGDGQTFIPLSGGIDVVAHELTHAVTDYTAGLHYQNESGAINEAISDIFGTLVEFYANKNPDWEIGEDVYTPGISGDSLRSMSDPAKYGDPDHYSKRYTGTQDNGGVHINSGIINKAAYLISQGGTHYGVSVVGIGRDKLGKIFYRALTQYLTPTSNFSQLRAAAVQSATDLYGSTSQEVASVKQAFDAVGVK

Assay: Stability assay in 25% TIDE 2X detergent with DTPA (residual Abz-AGLA-Nba protease activity)
Type: physicochemical
Details: 60 min at 32°C; variant residual AGLA activity divided by wild-type residual activity
Description: The stability of thermolysin and variants thereof was measured after incubation under defined conditions in the presence of 25% TIDE® 2× detergent. The initial and residual activity was determined.
MTPs were obtained from Costar (type 9017) and from Greiner (black plate, type 655076). Test Method Unstressed Conditions:
First, 20 μl thermolysin containing culture supernatant was diluted with 180 μl MES assay buffer. Then, 20 μl diluted supernatant was diluted further with 180 μl MES assay buffer. Subsequently 10 μl of this dilution was transferred into 190 μl AGLA-substrate solution in a pre-warmed plate (Greiner 655076) at 25° C. Any air bubbles present were blown away and the plate was measured according to the AGLA protease assay protocol described below.
First, 20 μl of culture supernatant was diluted with 180 μl 27.5% TIDE®+detergent solution and placed in the iEMS shaker. The plate covered with a plate seal was incubated for a total of 60 minutes at 32° C. at 900 rpm. In addition, 20 μl of culture supernatant was diluted with 180 μl 27.5% TIDE®−solution and placed in the iEMS shaker. This plate covered with a plate seal was incubated for a total of 180 minutes at 50° C. at 900 rpm.
Subsequently after the respective incubations, 20 μl of either of these solutions were diluted with 180 μl MES assay buffer and 10 μl of this dilution were diluted with 190 μl AGLA-substrate solution in a pre-warmed plate (Greiner 655076) at 25° C.
Fluorescence measurements were taken at excitation of 350 nm and emission of 420 nm. The spectrofluorometer software calculated the reaction rates (=slope) of the increase in fluorescence for each well to a linearly regressed line of (milli-) RFU/min. The ratio of the residual and initial AGLA activity was used to express the 25% TIDE® 2× stability as follows: Percentage of residual activity=[slope of stressed]*100/[slope of unstressed]
For each sample (thermolysin and variants thereof) the performance index was calculated by dividing the residual activity of the variant by the residual activity of thermolysin. The performance index compared the stability of the variant and the standard thermolysin enzyme (e.g., wild type or parental enzyme), determined under the same conditions.
In these experiments, the liberation of Abz-AG by protease cleavage of Abz-AGLA-Nba was monitored by fluorescence spectrometry (Ex. 350/Em. 420). The rate of appearance of Abz-AG was a measure of proteolytic activity.
The Abz-AGLA-Nba assay solution was prepared by adding 1 ml of the Abz-AGLA-Nba stock to 19 ml MES substrate buffer and mixed well for at least 2 minutes. Subsequently the thermolysin or variants thereof containing culture supernatants were diluted with MES assay buffer to a concentration of 1-6 μg protein per ml.
The assay was performed by adding 10 μl of diluted protease solution to each well, followed by the addition of 190 μl Abz-AGLA-Nba assay solution that was pre-equilibrated for at least 15 minutes at 25° C. The solutions were vigorously mixed, and the liberation of Abz-AG by protease cleavage of Abz-AGLA-Nba was monitored by fluorescence spectrometry at 25° C. in kinetic mode with excitation set at 350 nm and emission set at 420 nm. The rate of appearance of Abz-AG was a measure of proteolytic activity in the samples. The protease activity was expressed as RFU (relative fluorescence units·min^−1).
As described in Example 1, the stability of thermolysin variants was measured by determining the AGLA activity before and after incubation in the presence of TIDE® 2× heavy duty liquid (HDL) detergent at an elevated temperature. The tables contain the relative stability values compared to wild-type thermolysin, which is the quotient of the variant residual activity divided by the wild-type residual activity. A value greater than one indicates higher stability in the presence of detergent. […]

B1 and B2 are the same in “PI (relative stability), 25% TIDE 2X with DTPA” value: 1.02 for the first, 1.02 for the second.

Going from B3 to B4, the “PI (relative stability), 25% TIDE 2X with DTPA” value rises from 1.07 to 1.10.

First: B5
Second: B6
The “PI (relative stability), 25% TIDE 2X with DTPA” value of the first is higher: 1.19 for the first, 1.02 for the second.

B7 and B8 are the same in “PI (relative stability), 25% TIDE 2X with DTPA” value: 1.05 for the first, 1.05 for the second.

Going from B9 to B10, the “PI (relative stability), 25% TIDE 2X with DTPA” value rises from 1.04 to 1.21.

— patent publication US9976134B2, “Thermolysin variants” (Danisco US Inc., priority 2007, dated 2018)
